Results as given in the Immune Epitope Database (IEDB).
Each block holds one sequence with its values, some of them ahead of it.

What was measured:
[1] = target: HLA-A*02:01; experiment: IEDB peptide-MHC binding, purified MHC/competitive/radioactivity; ≥ and ≤ were set here for values at or beyond the usual limits of such assays
[2] = target: HLA-A*26:01; experiment: IEDB peptide-MHC binding, purified MHC/direct/fluorescence; filed as Kd, often an IC50 or EC50 that approximates it; ≥ and ≤ were set here for values at or beyond the usual limits of such assays
[3] = target: HLA-B*08:02; experiment: as above
[4] = target: HLA-B*27:05; experiment: as above
[5] = target: HLA-B*48:01; experiment: as above
[6] = target: HLA-A*01:01; experiment: as above
[7] = target: HLA-B*15:09; experiment: as above
[8] = target: HLA-B*39:01; experiment: as above
[9] = target: HLA-B*46:01; experiment: as above
[10] = target: HLA-A*69:01; experiment: as above
[11] = target: HLA-B*40:01; experiment: as above
[12] = target: HLA-A*02:01; experiment: as above
[13] = target: HLA-B*58:01; experiment: as above
[14] = target: HLA-B*57:01; experiment: as above
[15] = target: HLA-B*08:01; experiment: as above
[16] = target: HLA-A*03:01; experiment: as above
[17] = target: HLA-B*15:17; experiment: as above
[18] = target: HLA-A*31:01; experiment: as above
[19] = target: HLA-B*38:01; experiment: as above
[20] = target: HLA-A*11:01; experiment: IEDB peptide-MHC binding, purified MHC/competitive/fluorescence; filed as Kd, often an IC50 or EC50 that approximates it; ≥ and ≤ were set here for values at or beyond the usual limits of such assays; settings: source organism: Influenza A virus (A/duck/Hong Kong/3096/99(H6N2))
[21] = target: HLA-B*15:01; experiment: as above
[22] = target: HLA-A*11:01; experiment: IEDB peptide-MHC binding, purified MHC/direct/fluorescence; filed as Kd, often an IC50 or EC50 that approximates it; ≥ and ≤ were set here for values at or beyond the usual limits of such assays; settings: source organism: Mycobacterium tuberculosis
[23] = target: HLA-B*18:01; experiment: as above; settings: source organism: Mycobacterium tuberculosis
[24] = target: HLA-B*15:01; experiment: as above; settings: source organism: Mycobacterium tuberculosis
[25] = target: HLA-B*15:09; experiment: IEDB peptide-MHC binding, purified MHC/competitive/fluorescence; filed as Kd, often an IC50 or EC50 that approximates it; ≥ and ≤ were set here for values at or beyond the usual limits of such assays; settings: source organism: Mycobacterium tuberculosis str. Haarlem
[26] = target: HLA-B*07:02; experiment: as above; settings: source organism: Shigella boydii CDC 3083-94
[27] = target: HLA-B*39:01; experiment: as above; settings: source organism: Shigella boydii CDC 3083-94
[28] = target: HLA-B*40:01; experiment: as above
[29] = target: HLA-A*02:01; experiment: as above; settings: source organism: Shigella boydii CDC 3083-94
[30] = target: HLA-B*51:01; experiment: IEDB peptide-MHC binding, purified MHC/direct/fluorescence; filed as Kd, often an IC50 or EC50 that approximates it; ≥ and ≤ were set here for values at or beyond the usual limits of such assays; settings: source organism: Mycobacterium tuberculosis
[31] = target: HLA-B*57:01; experiment: IEDB peptide-MHC binding, purified MHC/competitive/fluorescence; filed as Kd, often an IC50 or EC50 that approximates it; ≥ and ≤ were set here for values at or beyond the usual limits of such assays; settings: source organism: Mycobacterium tuberculosis variant bovis BCG str. Pasteur 1173P2
[32] = target: HLA-B*08:01; experiment: as above; settings: source organism: Mycobacterium tuberculosis variant bovis BCG str. Pasteur 1173P2
[33] = target: HLA-A*31:01; experiment: as above; settings: source organism: Mycobacterium tuberculosis variant bovis BCG str. Pasteur 1173P2
[34] = target: HLA-A*02:01; experiment: IEDB peptide-MHC binding, purified MHC/competitive/radioactivity; filed as Kd, often an IC50 or EC50 that approximates it; ≥ and ≤ were set here for values at or beyond the usual limits of such assays; settings: source organism: Homo sapiens
[35] = target: HLA-C*12:03; experiment: IEDB peptide-MHC binding, purified MHC/direct/fluorescence; filed as Kd, often an IC50 or EC50 that approximates it; ≥ and ≤ were set here for values at or beyond the usual limits of such assays
[36] = target: HLA-A*26:02; experiment: as above
[37] = target: HLA-B*46:01; experiment: IEDB peptide-MHC binding, purified MHC/competitive/fluorescence; filed as Kd, often an IC50 or EC50 that approximates it; ≥ and ≤ were set here for values at or beyond the usual limits of such assays; settings: source organism: Giardia lamblia ATCC 50803
[38] = target: HLA-C*14:02; experiment: IEDB peptide-MHC binding, purified MHC/direct/fluorescence; filed as Kd, often an IC50 or EC50 that approximates it; ≥ and ≤ were set here for values at or beyond the usual limits of such assays; settings: source organism: Yellow fever virus
[39] = target: HLA-C*06:02; experiment: as above; settings: source organism: Yellow fever virus
[40] = target: HLA-C*15:02; experiment: as above; settings: source organism: Yellow fever virus
[41] = target: HLA-C*07:02; experiment: as above; settings: source organism: Yellow fever virus
[42] = source organism: Influenza A virus(A/swine/Shandong/fZC/2003(H9N2))
[43] = source organism: Influenza A virus (A/swine/Miyagi/5/2003(H1N2))
[44] = source organism: Mycobacterium tuberculosis str. Haarlem
[45] = source organism: Mycobacterium tuberculosis
[46] = source organism: Shigella boydii CDC 3083-94
[47] = source organism: Escherichia coli 536
[48] = source organism: Giardia lamblia ATCC 50803
[49] = source organism: Yellow fever virus

Sequence: FLPADFFPSI
IC50 ([1]; source organism: Hepatitis B virus): 0.016 µM

Sequence: GTEKLTITY
Kd [2, 42]: ≥ 20 µM | Kd [3, 42]: ≥ 20 µM | Kd [4, 43]: ≥ 20 µM | Kd [5, 43]: ≥ 20 µM | Kd [6, 43]: 0.0083 µM | Kd [7, 42]: ≥ 20 µM | Kd [8, 42]: ≥ 20 µM | Kd [9, 43]: ≥ 20 µM | Kd [10, 43]: ≥ 20 µM | Kd [11, 43]: ≥ 20 µM | Kd [12, 43]: ≥ 20 µM | Kd [13, 43]: ≥ 20 µM | Kd [14, 43]: ≥ 20 µM | Kd [15, 42]: ≥ 20 µM | Kd [16, 43]: ≥ 20 µM | Kd [17, 43]: 0.0065 µM | Kd [18, 43]: ≥ 20 µM | Kd [19, 42]: ≥ 20 µM | Kd [20]: ≥ 20 µM | Kd ([21]; source organism: Influenza A virus (A/duck/Hong Kong/3096/99(H6N2))): ≥ 20 µM

Sequence: IPAPGLGAL
Kd [2, 44]: 11.1 µM | Kd [4, 45]: ≥ 20 µM | Kd [5, 45]: ≥ 20 µM | Kd [6, 45]: ≥ 20 µM | Kd [9, 45]: ≥ 20 µM | Kd [10, 45]: 0.24 µM | Kd [11, 45]: ≥ 20 µM | Kd [12, 45]: ≥ 20 µM | Kd [13, 45]: ≥ 20 µM | Kd [14, 45]: ≥ 20 µM | Kd [15, 44]: ≥ 20 µM | Kd [16, 45]: ≥ 20 µM | Kd [22]: ≥ 20 µM | Kd [17, 45]: ≥ 20 µM | Kd [18, 45]: ≥ 20 µM | Kd [23]: ≥ 20 µM | Kd [24]: ≥ 20 µM | Kd [25]: 4.06 µM

Sequence: QEPGIFCAI
Kd [26]: ≥ 20 µM | Kd [27]: 0.496 µM | Kd [28, 46]: 0.0105 µM | Kd [29]: 0.116 µM | Kd [21, 46]: ≥ 20 µM

Sequence: RIRSERPAF
Kd [30]: ≥ 20 µM | Kd [4, 45]: ≥ 20 µM | Kd [5, 45]: ≥ 20 µM | Kd [6, 45]: ≥ 20 µM | Kd [7, 44]: ≥ 20 µM | Kd [8, 44]: ≥ 20 µM | Kd [9, 45]: ≥ 20 µM | Kd [10, 45]: ≥ 20 µM | Kd [11, 45]: ≥ 20 µM | Kd [12, 45]: ≥ 20 µM | Kd [13, 45]: ≥ 20 µM | Kd [16, 44]: 0.381 µM | Kd [22]: ≥ 20 µM | Kd [23]: ≥ 20 µM | Kd [24]: 0.0278 µM | Kd [31]: 0.935 µM | Kd [32]: 2.25 µM | Kd [33]: 0.982 µM

IC50 ([1]; source organism: Homo sapiens): 1.77 µM
Sequence: RQASIELPSMAV

Sequence: SLYNAVATL
IC50 ([1]; source organism: Human immunodeficiency virus 1): 0.029 µM

Sequence: VPRDRNGTF
Kd [30]: ≥ 20 µM | Kd [3, 44]: 19 µM | Kd [4, 45]: ≥ 20 µM | Kd [5, 45]: ≥ 20 µM | Kd [6, 45]: ≥ 20 µM | Kd [7, 44]: ≥ 20 µM | Kd [9, 45]: ≥ 20 µM | Kd [10, 45]: ≥ 20 µM | Kd [11, 45]: ≥ 20 µM | Kd [12, 45]: ≥ 20 µM | Kd [13, 45]: ≥ 20 µM | Kd [14, 45]: ≥ 20 µM | Kd [15, 44]: 0.624 µM | Kd [16, 45]: ≥ 20 µM | Kd [22]: ≥ 20 µM | Kd [17, 45]: ≥ 20 µM | Kd [18, 45]: ≥ 20 µM | Kd [23]: ≥ 20 µM | Kd [24]: ≥ 20 µM | Kd [19, 44]: ≥ 20 µM

IC50 ([1]; source organism: Homo sapiens): 0.0025 µM | Kd [34]: 0.0084 µM
Sequence: VVLSWAPPV

Kd [28, 47]: 0.0043 µM | Kd [21, 47]: 3.5 µM
Sequence: YEDEDIIVI

Sequence: YSAEALLPY
Kd [2, 48]: 0.009 µM | Kd [35, 48]: 0.013 µM | Kd [36, 48]: 0.003 µM | Kd [37]: 0.0551 µM

Sequence: YVIRDLAAM
Kd [38]: 0.079 µM | Kd [39]: ≥ 20 µM | Kd [35, 49]: 0.023 µM | Kd [36, 49]: ≤ 0.001 µM | Kd [40]: 0.274 µM | Kd [41]: 0.59 µM
